{
  "source": "patent US20240100133A1",
  "about": "“ENZYMATICALLY INACTIVE GRANZYME A AND USES THEREFORE” (Saint Louis University, priority 2022, published 2024)",
  "molecules": {"B1": {"name": "GzmA-C93S: Granzyme A variant with cysteine 93 substituted with serine; forms only monomers, retains enzymatic activity (protein)", "chain": "IIGGNEVTPHSRPYMVLLSLDRKTICAGALIAKDWVLTAAHCNLNKRSQVILGAHSITREEPTKQIMLVKKEFPYPSYDPATREGDLKLLQLMEKAKINKYVTILHLPKKGDDVKPGTMCQVAGWGRTHNSASWSDTLREVNITIIDRKVCNDRNHYNFNPVIGMNMVCAGSLRGGRDSCNGDSGSPLLCEGVFRGVTSFGLENKCGDPRGPGVYILLSKKHLNWIIMTIKGAV", "modifications": "left off: small tags and cut ends"}, "B2": {"name": "GzmA-S195A (protein)", "chain": "B1 chain with S77C, S184A", "modifications": "left off: small tags and cut ends"}},
  "key": {"[1]": {"assay": "BLT esterase assay for GzmA enzyme activity", "type": "biochemical", "details": "120 pM protein; substrate BLT", "protocol": "BLT esterase protocol for measuring GzmA enzyme activity. BLT esterase assays and calculation of specific activity were adapted from (Rasi et al., 2021; Rasi et al., 2022). Substrate Z-L-Lys-SBz1 hydrochloride (Sigma #C3647-25MG) was added to 96 well plates with a serial dilution between 19.5-2,500 μM. Assay buffer consisted of 50 mM Tris, 154 mM NaCl, pH 7.5 in presence of […] (5,5-dithio-bis-(2-nitrobenzoic acid) (DTNB) chromophore. 120 pM of protein was added to each well and substrate hydrolysis was quantified by measuring the absorbance at 405 nm."}, "[2]": {"test_system": "Connaught BCG within primary CD14+ human monocytes", "type": "cell-based", "details": "for inhibition of intracellular mycobacterial replication (MGIA): 72 h"}, "[3]": {"test_system": "Mtb H37Rv within primary CD14+ human monocytes", "type": "cell-based, Mycobacterium tuberculosis", "details": "200 nM GzmA, Mtb MOI 1, human monocytes"}, "[4]": {"test_system": "mycobacteria within iMac-WT mouse cells", "type": "cell-based", "details": "human GzmA on mouse iMac-WT cells"}, "mycobacteria BCG-GFP": {"test_system": "mycobacteria BCG-GFP", "type": "binding"}, "[5]": {"test_system": "LAMP1 (phagolysosome fusion)", "assay": "Confocal microscopy colocalization of BCG-GFP and LAMP1", "type": "cell-based, human", "details": "compared with untreated controls", "protocol": "Confocal microscopy and Stimulation Emission Depletion (STED) experiments. For confocal and STED microscopy experiments, cells were incubated on coverslips pre-treated with Cell-Tak (Corning #354240). At the time of fixation, cells were washed twice with 1×RT PBS, and then fixed in 4% paraformaldehyde for 15 min at 37° C. Slides were washed thrice for 5 min at RT with 1×PBS, and then blocked with 5% donkey serum (Cat. #017-000-121, Jackson ImmunoResearch, West Grove, PA) with 0.25% Tween-20 (Cat. #P9416, Sigma, St. Louis, MO) and True Stain Fc blocker (added only during blocking step) (Cat. #426101, Biolegend, San Diego, CA). Cells were then incubated overnight at 4° C. with primary antibody anti-GzmA (Cat. #MAB29051, R&D, Minneapolis, MN) at 12.5 μg/mL in blocking buffer, anti-PDIA1 (Cat. #MAB4236, R&D, Minneapolis, MN) at 12.5 μg/mL in blocking buffer, anti-LAMP1 at 12.5 ug/ml (Cat. #MAB4800, R&D, Minneapolis, MN), or anti-ATPSH (Cat. #ab110275, Abcam, Cambridge, UK) at 5 μg/mL in blocking buffer. To remove unbound antibody, cells were washed four times with 1×PBS at RT, and then incubated in the dark for 2 h with secondary antibody conjugated with Alexa Fluor 594 (Cat. #715-545-150, Jackson Immunoresearch, West Grove, PA) at 1:100 or Atto 647N (Cat. #ASR3248, Abcepta, San Diego, Ca) at 1:100. […]"}, "CD14": {"biological_target": "T1, CD14 (Homo sapiens, UniProt P08571)", "T1 sequence (P08571 20-345)": "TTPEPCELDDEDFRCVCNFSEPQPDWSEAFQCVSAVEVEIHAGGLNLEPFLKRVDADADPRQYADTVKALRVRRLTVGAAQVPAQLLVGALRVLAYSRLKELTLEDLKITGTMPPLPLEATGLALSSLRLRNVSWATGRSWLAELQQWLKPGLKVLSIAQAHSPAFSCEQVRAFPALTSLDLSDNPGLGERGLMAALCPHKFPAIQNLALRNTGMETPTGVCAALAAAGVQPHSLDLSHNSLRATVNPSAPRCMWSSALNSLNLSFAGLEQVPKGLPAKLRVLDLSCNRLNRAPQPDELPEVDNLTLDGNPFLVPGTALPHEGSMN", "assay": "Immunoprecipitation with anti-GzmA, probed for CD14", "details": "human monocyte lysates, infected and uninfected cells"}, "TLR4": {"biological_target": "TLR4 (Homo sapiens, UniProt O00206)", "sequence (O00206 24-839)": "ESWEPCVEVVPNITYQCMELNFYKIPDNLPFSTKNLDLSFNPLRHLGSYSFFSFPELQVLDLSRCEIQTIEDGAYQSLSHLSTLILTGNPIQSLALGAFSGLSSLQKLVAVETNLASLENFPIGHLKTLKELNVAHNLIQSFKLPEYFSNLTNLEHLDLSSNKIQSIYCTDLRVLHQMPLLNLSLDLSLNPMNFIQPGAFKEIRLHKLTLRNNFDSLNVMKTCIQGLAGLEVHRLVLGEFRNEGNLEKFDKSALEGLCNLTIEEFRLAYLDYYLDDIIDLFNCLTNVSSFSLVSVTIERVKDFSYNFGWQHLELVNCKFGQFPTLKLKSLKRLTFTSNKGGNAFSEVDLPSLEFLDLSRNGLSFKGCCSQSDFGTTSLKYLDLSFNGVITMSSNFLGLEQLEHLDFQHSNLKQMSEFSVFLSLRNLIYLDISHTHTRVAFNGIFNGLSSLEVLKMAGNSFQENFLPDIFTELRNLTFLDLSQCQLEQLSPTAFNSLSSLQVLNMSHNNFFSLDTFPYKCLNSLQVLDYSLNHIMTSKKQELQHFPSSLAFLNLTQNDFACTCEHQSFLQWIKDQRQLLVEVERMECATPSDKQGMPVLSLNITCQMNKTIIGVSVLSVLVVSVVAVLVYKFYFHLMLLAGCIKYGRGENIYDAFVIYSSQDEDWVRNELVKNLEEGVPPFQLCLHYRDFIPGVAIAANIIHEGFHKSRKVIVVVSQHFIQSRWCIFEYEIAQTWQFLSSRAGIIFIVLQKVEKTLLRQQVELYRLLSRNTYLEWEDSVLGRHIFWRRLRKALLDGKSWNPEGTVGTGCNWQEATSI", "assay": "Immunoprecipitation with anti-GzmA, probed for TLR4", "details": "human monocyte lysates, infected and uninfected cells"}},
  "note": "Where a chain is given by its changes, count along the chain named. In names and notes the source's numbering stands. Where two headings read alike, the source gives them in different places.",
  "data": [
    {"molecule": "B1", "values": [
      {"measurement": "enzymatic (esterase) activity, cleavage of BLT", "setting": "[1]", "value": "cleaved similar amounts of BLT as GzmA-WT"},
      {"measurement": "effect of monomeric GzmA on protective effects of GzmA-WT (mixing experiment)", "setting": "[2]", "value": "partially inhibit the protective effects of GzmA-WT"},
      {"measurement": "intracellular replication of pre-opsonized mycobacteria (excess protein removed)", "setting": "[2]", "value": "cannot"},
      {"measurement": "inhibition of intracellular mycobacterial replication (MGIA)", "setting": "[2]", "value": "loses its inhibitory activity"},
      {"measurement": "inhibition of intracellular Mtb (MGIA)", "setting": "[3]", "value": "did not"},
      {"measurement": "inhibition of mycobacterial growth in iMac-WT cells", "setting": "[4]", "value": "did not"},
      {"measurement": "binding to mycobacteria", "setting": "mycobacteria BCG-GFP", "value": "able to bind mycobacteria"},
      {"measurement": "colocalization between LAMP1 and BCG-GFP", "setting": "[5]", "value": "fails to direct mycobacteria into the phagolysosome"},
      {"measurement": "binding to CD14 (immunoprecipitation)", "setting": "CD14", "value": "does not"},
      {"measurement": "binding to TLR4 (immunoprecipitation)", "setting": "TLR4", "value": "does not"}
    ]},
    {"molecule": "B2", "values": [
      {"measurement": "enzymatic (esterase) activity, cleavage of BLT", "setting": "[1]", "value": "loses its enzymatic activity"},
      {"measurement": "GzmA inhibitory activity after CD14 neutralization (MGIA)", "setting": "[2]", "value": "lost their inhibitory activity"},
      {"measurement": "GzmA inhibitory activity after TLR2 neutralization (MGIA)", "setting": "[2]", "value": "does not reverse"},
      {"measurement": "inhibition of intracellular mycobacterial replication (MGIA)", "setting": "[2]", "value": "inhibits the intracellular replication of mycobacteria"},
      {"measurement": "inhibition of intracellular Mtb (MGIA)", "setting": "[3]", "value": "inhibited Mtb"},
      {"measurement": "inhibition of intracellular Mtb (MGIA)", "setting": "[3]; listed as recombinant enzymatically inactive GzmA", "value": "very potent at protecting against Mtb intracellular infection"},
      {"measurement": "inhibition of mycobacterial growth in iMac-WT cells", "setting": "[4]", "value": "modestly inhibit mycobacterial growth"},
      {"measurement": "binding to mycobacteria", "setting": "mycobacteria BCG-GFP", "value": "bound mycobacteria"}
    ]}
  ]
}
